Among the data in patent US20120058906A1 (published 2012) are ECL signal values, retold here.

Experiment [1] concerns the target T1, Recombinant Human DLL4 (R&D Systems Cat#1506-D4/CF) (human, UniProt Q9NR61 27-524).
T1 construct: Bought recombinant protein; also called rHuman DLL4; delta-like protein 4
Briefly: MSD ECL multi-spot, Fab 0.14 uM, blank 237.

Experiment [2] deals with T2, rHuman P-Cadherin/Fc Chimera, CF (R&D Systems Cat#861-PC) (human, UniProt P22223 108-654).
T2 construct: Bought Fc chimera; Fc part of the bought chimera not given
Briefly: MSD ECL multi-spot, Fab 0.14 uM, blank 237.

In experiment [3] the target is T3, rHuman CD44/Fc Chimera, CF (R&D Systems Cat#3660-CD) (human, UniProt P16070 21-220).
T3 construct: Bought Fc chimera; Fc part of the bought chimera not given
Briefly: MSD ECL multi-spot, Fab 0.14 uM, blank 237.

In experiment [4] the target is T4, rHuman IGF-1 sR (insulin-like growth factor-1 soluble receptor), CF (R&D Systems Cat#391-GR) (human, UniProt P08069 31-932).
T4 construct: Bought soluble receptor; also called IGF-R1
The experiment in a line: MSD ECL multi-spot, Fab 0.14 uM, blank 237.

Experiment [5] addresses T5, rHuman ErbB2/Fc Chimera, CF (R&D Systems Cat#1129-ER) (human, UniProt P04626 23-652).
T5 construct: Bought Fc chimera; also called HER2/neu; Fc part of the bought chimera not given
The experiment in a line: MSD ECL multi-spot, Fab 0.14 uM, blank 237.

The target in experiment [6] is T6, rHuman Erythropoietin R/Fc Chimera, CF (R&D Systems Cat#963-ER) (human, UniProt P19235 25-250).
T6 construct: Bought Fc chimera; also called EPO R/Fc; EPOR; Fc part of the bought chimera not given
T6 sequence: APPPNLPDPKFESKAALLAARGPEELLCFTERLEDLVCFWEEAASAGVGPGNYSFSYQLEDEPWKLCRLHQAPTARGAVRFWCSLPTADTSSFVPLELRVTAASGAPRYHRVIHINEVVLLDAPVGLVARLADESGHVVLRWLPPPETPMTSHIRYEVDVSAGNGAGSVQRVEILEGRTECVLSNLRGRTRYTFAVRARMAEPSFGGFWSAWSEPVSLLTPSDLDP
The experiment in a line: MSD ECL multi-spot, Fab 0.14 uM, blank 237.

Experiment [7] addresses T7, rHuman Notch-1/Fc Chimera, CF (R&D Systems Cat#3647-TK) (human, UniProt P46531 19-526).
T7 construct: Bought Fc chimera; Fc part of the bought chimera not given
Briefly: MSD ECL multi-spot, Fab 0.14 uM, blank 237.

Experiment [8] deals with T8, rHuman EGF R/Fc Chimera, CF (R&D Systems Cat#344-ER) (human, UniProt P00533 25-645).
T8 construct: Bought Fc chimera; Fc part of the bought chimera not given
Briefly: MSD ECL multi-spot, Fab 0.14 uM, blank 237.

Experiment [9] deals with T9, rHuman HGF R/c-MET/Fc Chimera, CF (R&D Systems Cat#358-MT/CF) (human, UniProt P08581 25-932).
T9 construct: Bought Fc chimera; also called HGF R/Fc; Fc part of the bought chimera not given
The experiment in a line: MSD ECL multi-spot, Fab 0.14 uM, blank 237.

Experiment [10] has as its target T10, rHuman P-Cadherin/Fc Chimera, CF (R&D Systems Cat#861-PC) (human, UniProt P22223 108-654).
T10 construct: Bought Fc chimera; also called CDH3; not shown: Fc of the bought chimera
The experiment in a line: ECL (MSD multi-spot), antigen on plate, Fab 10 nM.

For experiment [11], the target named is T11, rHuman EGF R/Fc Chimera, CF (R&D Systems Cat#344-ER) (human, UniProt P00533 25-645).
T11 construct: Bought Fc chimera; also called ErbB-1; not shown: Fc of the bought chimera
The experiment in a line: ECL (MSD multi-spot), antigen on plate, Fab 10 nM.

The target of experiment [12] is T12, rHuman CD44/Fc Chimera, CF (R&D Systems Cat#3660-CD) (human, UniProt P16070 21-220).
T12 construct: Bought Fc chimera; not shown: Fc of the bought chimera
Briefly: ECL (MSD multi-spot), antigen on plate, Fab 10 nM.

Experiment [13] deals with T13, rHuman ErbB2/Fc Chimera, CF (R&D Systems Cat#1129-ER) (human, UniProt P04626 23-652).
T13 construct: Bought Fc chimera; also called HER2/neu; not shown: Fc of the bought chimera
The experiment in a line: ECL (MSD multi-spot), antigen on plate, Fab 10 nM.

Experiment [14] deals with T14, rHuman IGF-1 sR (insulin-like growth factor-1 soluble receptor), CF (R&D Systems Cat#391-GR) (human, UniProt P08069 31-932).
T14 construct: Bought soluble receptor; also called IGF-R1
The experiment in a line: ECL (MSD multi-spot), antigen on plate, Fab 10 nM.

The target of experiment [15] is T15, rHuman Erythropoietin R/Fc Chimera, CF (R&D Systems Cat#963-ER) (human, UniProt P19235 25-250).
T15 construct: Bought Fc chimera; also called EPO R/Fc; Epo R; not shown: Fc of the bought chimera
T15 sequence: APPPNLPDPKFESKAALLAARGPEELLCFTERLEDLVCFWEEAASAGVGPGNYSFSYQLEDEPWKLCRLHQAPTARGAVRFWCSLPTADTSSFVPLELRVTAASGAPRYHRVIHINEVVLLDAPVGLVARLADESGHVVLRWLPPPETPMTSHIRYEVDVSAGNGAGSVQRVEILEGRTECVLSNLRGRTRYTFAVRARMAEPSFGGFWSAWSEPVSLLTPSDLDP
Briefly: ECL (MSD multi-spot), antigen on plate, Fab 10 nM.

Experiment [16] addresses T16, rHuman HGF R/c-MET/Fc Chimera, CF (R&D Systems Cat#358-MT/CF) (human, UniProt P08581 25-932).
T16 construct: Bought Fc chimera; also called HGF R/Fc; not shown: Fc of the bought chimera
The experiment in a line: ECL (MSD multi-spot), antigen on plate, Fab 10 nM.

For experiment [17], the target named is T17, Recombinant Human DLL4 (R&D Systems Cat#1506-D4/CF) (human, UniProt Q9NR61 27-524).
T17 construct: Bought recombinant protein; also called delta-like protein 4
Briefly: ECL (MSD multi-spot), antigen on plate, Fab 10 nM.

Experiment [18] addresses T18, rHuman Notch-1/Fc Chimera, CF (R&D Systems Cat#3647-TK) (human, UniProt P46531 19-526).
T18 construct: Bought Fc chimera; not shown: Fc of the bought chimera
The experiment in a line: ECL (MSD multi-spot), antigen on plate, Fab 10 nM.

The target in experiment [19] is T19, rHuman Erythropoietin R/Fc Chimera, CF (R&D Systems Cat#963-ER) (human, UniProt P19235 25-250).
T19 construct: Bought reagent; also called EPO R/Fc; Epo R; Fc part of the bought chimera not given
T19 sequence: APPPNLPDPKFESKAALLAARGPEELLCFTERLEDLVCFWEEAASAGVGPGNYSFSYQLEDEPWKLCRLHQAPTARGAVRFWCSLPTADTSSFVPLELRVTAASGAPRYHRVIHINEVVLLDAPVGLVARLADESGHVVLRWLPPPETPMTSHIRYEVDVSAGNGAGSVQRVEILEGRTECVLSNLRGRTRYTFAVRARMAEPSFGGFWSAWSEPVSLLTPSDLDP
Briefly: ECL (MSD multi-spot), antigen spotted on plate; Fab 705 nM; blank spot 483.
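Note: blank spot per well as comparator with Hit at signal to blank ratio of 4 or more.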

B1: Fab VH1-46_IGHD6-6*01_IGHJ1*01 & L6_IGKJ1*01 (Fab, V domains shown)
VH: QVQLVQSGAEVKKPGASVKVSCKASGYTFTSYYMHWVRQAPGQGLEWMGIINPSGGSTSYAQKFQGRVTMTRDTSTSTVYMELSSLRSEDTAVYYCAREEYSSSSAEYFQHWGQGTLVTVSS
VL: not shown
notes: Expressed in E. coli as Fab: heavy chain with CH1 plus Flag and His tags from Plasmid A, kappa light chain constant region from Plasmid C; also called Fab No. 1
Regarding B1, the ECL signal in [1] came out at 19300; in [2], 423; in experiment [3], 515; in experiment [4] it was 663; in experiment [5], 870; in experiment [6], 693. Also, the results for the ECL signal in [7], in experiment [8] and in [9] were 614, 823 and 848, respectively.

B2: Fab VH1-46_IGHD6-6*01_IGHJ1*01_S102A_S103P_S104F & L6_IGKJ1*01_S31K (Fab, V domains shown)
VH: QVQLVQSGAEVKKPGASVKVSCKASGYTFTSYYMHWVRQAPGQGLEWMGIINPSGGSTSYAQKFQGRVTMTRDTSTSTVYMELSSLRSEDTAVYYCAREEYAPFSAEYFQHWGQGTLVTVSS
VL: EIVLTQSPATLSLSPGERATLSCRASQSVSKYLAWYQQKPGQAPRLLIYDASNRATGIPARFSGSGSGTDFTLTISSLEPEDFAVYYCQQRSNWPPWTFGQGTKVEIKR
notes: Fab
For the molecule B2, the ECL signal worked out at 240 ECL signal in experiment [10]; 297 ECL signal in [11]; 352 ECL signal in experiment [12]; 303 ECL signal in experiment [13]; 214 ECL signal in [14]; 392 ECL signal in experiment [15]. For the same molecule, the ECL signal is 271 ECL signal in experiment [16], 29800 ECL signal in [17] and 388 ECL signal in experiment [18].

B3: Fab VH1-46_IGHD3-10*01_IGHJ4*01 & B3_IGKJ1*01 (Fab, V domains shown)
VH: QVQLVQSGAEVKKPGASVKVSCKASGYTFTSYYMHWVRQAPGQGLEWMGIINPSGGSTSYAQKFQGRVTMTRDTSTSTVYMELSSLRSEDTAVYYCAREYYYGSGSYYNDYFDYWGQGTLVTVSS
VL: not shown
notes: also called IGHV1-46*01
As to B3, in experiment [19], the ECL signal is 4890.
